Test results published in patent US20090062187A1, “Use of Hmgb1 for Wound Healing” (priority 2004, published 2009).
Entries after “also recorded” stand apart in the source; their conditions may differ.

B1: HMGB1 (protein, UniProt P09429 1-215, looked up)
High mobility group protein B1: MGKGDPKKPRGKMSSYAFFVQTCREEHKKKHPDASVNFSEFSKKCSERWKTMSAKEKGKFEDMAKADKARYEREMKTYIPPKGETKKKFKDPNAPKRPPSAFFLFCSEYRPKIKGEHPGLSIGDVAKKLGEMWNNTAADDKQPYEKKAAKLKEKYEKDIAAYRAKGKPDAAKKGVVKAEKSKKKKEEEEDEEDEEDEEEEEDEEDEDEEEDDDDE
notes: purified protein; cytokine released from monocyte-macrophage and necrotic cells, ligand of RAGE

Tests used:
normal CD1 mice = assay: Wound closure after full-thickness excised wound in normal CD1 mice; assay type: in vivo; conditions: for wound area reduced by % of the initial size / wound closure / healing rate vs vehicle: normal mice; for wound area reduced by % of the initial size: GL 250 μg/mouse topically every two days; for wound closure / healing rate vs vehicle: GL 250 μg/mouse topically in wound area
diabetic CD1 mice = assay: Wound closure after full-thickness excised wound in streptozotocin-diabetic CD1 mice; assay type: in vivo
Description: CD1 male mice were obtained from Charles River (Calco, LC, Italy). Mice were rendered diabetic by intraperitoneal injection of streptozotocin (Sigma-Aldrich, St Louis, Mo., USA) at 1.2 mg/30 g weight/day for 5 consecutive days. After 7 days, glycemia was measured and animals with glycemia of 200 to 400 mg/dl were selected for further studies. Mice were anesthetized with intraperitoneal injection of 2.5% Avertin (100% Avertin: 10 g of 2,2,2-tribromoethyl alcohol and 10 ml of tert-amyl alcohol, Sigma). Their dorsum was clipped free of hair and a full thickness wound of 3.5 mm diameter was created using a biopsy punch.
HMGB1 treatment was performed directly in the wound area by injecting 200 ng, 400 ng or 800 ng of purified protein (13) in 20 μl of saline solution at time immediately after wound. Control groups received 20 μl of saline solution in the wound. Glycyrrhyzin, GL (12) was administered topically in the wound area every two days from day 0 to day 14 after wound creation. The concentration used for each administration was 250 μg/mouse in 30 μl of PBS. Control mice received vehicle (PBS).
Animals were photographed at day 0, 3, 5, 6, 7, 10, and 14 after wound. Pictures were digitally processed and areas of wounds were calculated using the KS300 system (Zeiss, Jena GmbH, Germany). For each sample the percentage of wound closure was calculated as the ratio: […]
Where time 0 is the time immediately after the wound. The groups included 6 to 10 animals. Results are presented as mean±standard error. Statistical significance between two measurements was evaluated by unpaired Student's t test.

normal human fibroblasts = assay: Chemotaxis assay (modified Boyden chamber), normal human fibroblasts; assay type: cell-based; conditions: HMGB1 200 ng/ml
Description: (§1) FIG. 9: Effect of HMGB1 on human fibroblasts and keratinocytes migration. Normal (A) and diabetic (B) fibroblasts were obtained from human biopsies. 0.4×10^6 cells/ml were placed in upper compartment of the modified Boyden chambers. HMGB1 (200 ng/ml) or PDGF (15 ng/ml) was added to the lower compartment and incubated for 6 hrs at 37° C. (C) Hacat cells were obtained from ATCC and migration experiments performed as described in (A-B). After staining with Giemsa solution, migrated cells were quantified by counting nuclei in five random microscope fields (40×). The data are expressed as migration index (fold increase in number of migrated cells relative to number of migrated cells in the absence of HMGB1 or PDGF) and are mean±SD of at least 4 independent experiments performed in triplicate. Statistical significance was evaluated by unpaired Student's t test. […]
(§2) The lower compartment of each chamber was filled with 28 μl DMEM with 0.1% BSA. […] Cells on five random fields on the lower face of the filter were counted at 40× magnification and migration index was calculated by dividing the number of migrated cells in the presence of chemoattractants by the cells migrated in response to DMEM with 0.1% BSA.

[1] = tested on: diabetic human fibroblasts; assay: Chemotaxis assay (modified Boyden chamber), diabetic human fibroblasts; assay type: cell-based; conditions: HMGB1 200 ng/ml
Description: as §1, §2

[2] = tested on: keratinocytes (HaCat cell line); assay: Chemotaxis assay (modified Boyden chamber), keratinocytes; assay type: cell-based, human; conditions: HMGB1 200 ng/ml
Description: FIG. 9: Effect of HMGB1 on human fibroblasts and keratinocytes migration. Normal (A) and diabetic (B) fibroblasts were obtained from human biopsies. 0.4×10^6 cells/ml were placed in upper compartment of the modified Boyden chambers. HMGB1 (200 ng/ml) or PDGF (15 ng/ml) was added to the lower compartment and incubated for 6 hrs at 37° C. (C) Hacat cells were obtained from ATCC and migration experiments performed as described in (A-B). After staining with Giemsa solution, migrated cells were quantified by counting nuclei in five random microscope fields (40×). The data are expressed as migration index (fold increase in number of migrated cells relative to number of migrated cells in the absence of HMGB1 or PDGF) and are mean±SD of at least 4 independent experiments performed in triplicate. Statistical significance was evaluated by unpaired Student's t test.
Hacat human cells were obtained according to (14). […]
as §2

Molecule	wound area reduced by % of the initial size (normal CD1 mice; day 3)	wound area reduced by % of the initial size (normal CD1 mice; day 5)	wound area reduced by % of the initial size (normal CD1 mice; day 6)	wound area reduced by % of the initial size (normal CD1 mice; day 7)	wound closure / healing rate vs vehicle (normal CD1 mice)	wound closure / healing rate vs vehicle (normal CD1 mice; listed as glycyrrhizin)	wound closure vs saline (diabetic CD1 mice; glycyrrhizin 250 μg in the wound area)	wound closure (normal CD1 mice; normal CD1 mice, HMGB1 200 ng in 20 μl injected in wound area immediately after wounding, vs saline)	percentage of wound closure (normal CD1 mice; normal CD1 mice, HMGB1 200 ng, day 3 after wounding)	percent of wound closure vs saline (normal CD1 mice; normal CD1 mice, HMGB1 200 ng, day 5, p<0.03)	chemotactic effect (migration) (normal human fibroblasts)	chemotactic effect (migration) [1]	percentage of wound closure (diabetic CD1 mice; HMGB1 200 ng, day 3 after wounding)	percentage of wound closure (diabetic CD1 mice; HMGB1 200 ng, day 5)	percentage of wound closure (diabetic CD1 mice; HMGB1 200 ng, day 6)	healing rate vs saline (diabetic CD1 mice; HMGB1 200 ng, p<0.03)	complete wound closure evident by (diabetic CD1 mice; HMGB1 200 ng, same in saline group)	wound closure compared to lower dose (200 ng) (diabetic CD1 mice; HMGB1 400 ng in 20 ul, 3 days after wounding)	wound closure compared to dose of 200 ng (diabetic CD1 mice; HMGB1 800 ng)	chemotactic effect (migration) [2]
CC1(C)[C@@H](O[C@H]2O[C@H](C(=O)O)[C@@H](O)[C@H](O)[C@H]2O[C@@H]2O[C@H](C(=O)O)[C@@H](O)[C@H](O)[C@H]2O)CC[C@]2(C)[C@H]3C(=O)C=C4[C@@H]5C[C@@](C)(C(=O)O)CC[C@]5(C)CC[C@@]4(C)[C@]3(C)CC[C@@H]12 [GL, Glycyrrhizin]	15±3.5%	38.7±6%	61.2±5.9%	73.3±4.5%	slowed down wound closure	significantly lower	No significant differences; also recorded: did not significantly modify wound closure													
B1								increased wound closure	30.5±8.5%	significantly higher	exhibited a chemotactic effect	exhibited a chemotactic effect	47.5±15.8%	66.5±13%	72.2±9%	significantly higher	≤ 14 days	larger wound closure	same effect	exhibited a chemotactic effect
